One protein from article PMC2891668 (Molecular cancer therapeutics, 2009) can be followed below.

This data set deals with the molecule itself. The data set is described as follows: crystal structure.

One may read the stoichiometry N as a count of units in the complex or per binding partner.

B1: NM23-H2 R88A mutant (enzyme, human)
chain: ANLERTFIAIKPDGVQRGLVGEIIKRFEQKGFRLVAMKFLRASEEHLKQHYIDLKDRPFFPGLVKYMNSGPVVAMVWEGLNVVKTGAVMLGETNPADSKPGTIRGDFCIQVGRNIIHGSDSVKSAEKEISLWFKPEELVDYKSCAHDWVYE
As for B1, the “stoichiometry N” value is 6.
